According to WO2011083140A1 (dated 2011):
Values joined by “and” are separate entries in the source; they are usually repeats but may differ in a detail not shown here. Equal entries are not always repeated.

B1: 4CXCR010E12 (VHH)
VHH: EVQLVESGGGLVQAGGSLRLSCAVSGRTFTSYDMAWFRQAPGKERESVAAIRWTGSSTYYADSVKGRFTISRDNAKSTVYLQMNSLKPEDTAVYYCAARDTGRYRSRTYDYWGQGTQVTVSS
notes: also called P4CXCR10E12; not shown: C-terminal c-myc tag and His6 tag
B2: 4CXCR015A01 (VHH, not shown: small tags and cut ends)
VHH: EVQLVESGGGLVQAGGSLRLSCAASGRTFSRAAMGWFRQAPGKEREFVGCALSSAGSALTADSVKGRFTISRDNAKNMVYLQMNNLKPEDTAVYSCVAGGYCTRAGVYPYWGQGTQVTVSS
notes: also called 15A1; P4CXCR15A01
B3: 4CXCR010G10 (VHH)
VHH: EVQLVESGGGLVQAGGSLRLSCAASGRTFNSYAMAWFRQAPGKERENVAAIRWSGGRATKYADSVRGRFTISKDNAKNTVYLQMSSLKPEDTAVYYCATQTYYRSGLASTRDFDSWGQGTQVTVSS
modifications: Alexa-647 label in the competition FACS of D-2
notes: also called P4CXCR10G10; not shown: C-terminal c-myc tag and His6 tag
B4: 4CXCR014A02 (VHH)
VHH: EVQLVESGGGLVQAGGSLRLSCVASGISSSIRNMGWYRQAPGKQRESVATISSGGNKDYTDAVKDRFTISRDTTKNTVYLQMSSLKPEDTAVYYCKIEAGTGWATRRGYTYWGQGTQVTVSS
notes: also called 14A2; not shown: C-terminal c-myc tag and His6 tag
B5: 4CXCR015H03 (VHH)
VHH: EVQLVESGGGSVQTGGSLRVSCAASGLSFNTYTMGWLRQAPGKEREFVAVINWNGDRTNYADSVKGRFSVSRDNAKNTVFLQMNSLRPEDTAVYYCAARPRFTAEPMTSRRYQYWGRGTQVTVSS
notes: also called 15H3; P4CXCR15H3; not shown: C-terminal c-myc tag and His6 tag
B6: 4CXCR281E10 (VHH)
VHH: EVQLVESGGGLVQAGGSLRLSCKASGGTFNNYAMGWFRRAPGKEREFVAAITRSGVRSGVSAIYGDSVKDRFTISRDNVKNTLYLQMNTLKPEDTAVYTCAASAIGSGALRRFEYDYSGQGTQVTVSS
notes: Family member of 238D4 (family 17); also called P4CXCR281E10; not shown: C-terminal c-myc tag and His6 tag
B7: 4CXCR010E09 (VHH)
VHH: EVQLVESGGGLVQTGGSLRLSCAASGRTFSSYAMGWFRRAPGKEREFVATISWRGDRKYYSESVKDRFTIARGRSNKNAVYLQMNSLKPEDTAVYYCAKDRAPYGSGSPDVKQYEHWGQGTQVTVSS
notes: Monovalent Nanobody from E. coli; also called 10E9; P4CXCR10E09; not shown: C-terminal c-myc tag and His6 tag

Experiments:
human CXCR4 [1] = target: T1, human CXCR4 (human, UniProt P61073 1-352); assay: cell-based or functional assay
T1 sequence (P61073 whole entry): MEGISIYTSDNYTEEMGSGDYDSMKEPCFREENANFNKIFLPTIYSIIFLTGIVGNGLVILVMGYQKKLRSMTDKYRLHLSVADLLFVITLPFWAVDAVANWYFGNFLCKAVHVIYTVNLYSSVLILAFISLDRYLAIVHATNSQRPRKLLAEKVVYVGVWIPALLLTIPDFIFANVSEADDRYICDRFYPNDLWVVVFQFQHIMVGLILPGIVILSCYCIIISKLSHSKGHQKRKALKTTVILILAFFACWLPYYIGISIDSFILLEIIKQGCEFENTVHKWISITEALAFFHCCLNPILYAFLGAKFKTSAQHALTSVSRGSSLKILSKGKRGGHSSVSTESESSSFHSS

human CXCR4 [2] = target: T1, human CXCR4; assay: binding to CXCR4 VLP, Table C-3
mouse CXCR4 = target: T2, mouse CXCR4 (mouse, UniProt P70658 1-359); assay: binding FACS on murine BaF-3 cells, anti-myc detection
T2 construct: whole, on cells; also called mCXCR4
T2 sequence (P70658 whole entry): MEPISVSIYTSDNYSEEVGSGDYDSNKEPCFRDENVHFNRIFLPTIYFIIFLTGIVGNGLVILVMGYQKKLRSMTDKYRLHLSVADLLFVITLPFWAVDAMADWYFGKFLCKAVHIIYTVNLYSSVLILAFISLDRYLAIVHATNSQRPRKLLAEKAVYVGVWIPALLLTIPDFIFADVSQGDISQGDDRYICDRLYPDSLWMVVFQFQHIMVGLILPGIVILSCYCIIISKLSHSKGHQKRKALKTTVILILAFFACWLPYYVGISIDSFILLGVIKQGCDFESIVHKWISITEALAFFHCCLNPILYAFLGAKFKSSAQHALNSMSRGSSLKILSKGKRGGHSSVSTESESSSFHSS

human CXCR4 [3] = target: T1, human CXCR4; assay: SDF-1 displacement (competition with SDF-1 for CXCR4), Table C-3
human CXCR4 [4] = target: T1, human CXCR4; assay: binding to Caki-CXCR4 cells, Table C-3
CXCR4 V196E = target: T3, CXCR4 V196E (human, UniProt P61073 1-352); assay: flow cytometry on transiently transfected HEK293T cells, Myc-tag detection
T3 construct: whole, on cells
T3 sequence (P61073 whole entry V196E): as the sequence (P61073 whole entry) above, with V196E counted along it

CXCR4 D187V = target: T4, CXCR4 D187V (human, UniProt P61073 1-352); assay: as above
T4 construct: whole, on cells; Printed as Dl 87V in this copy
T4 sequence (P61073 whole entry D187V): as the sequence (P61073 whole entry) above, with D187V counted along it

CXCR4 F189V = target: T5, CXCR4 F189V (human, UniProt P61073 1-352); assay: as above
T5 construct: whole, on cells
T5 sequence (P61073 whole entry F189V): as the sequence (P61073 whole entry) above, with F189V counted along it

Row | Binder | Chemotaxis IC50 (M) +HSA (human CXCR4 [1]) [M] | Chemotaxis IC50 (M) -HSA (human CXCR4 [1]) [M] | Chemotaxis IC50 (nM) Jurkat (human CXCR4 [1]) | EC50 (human CXCR4 [2]) [nM] | binding result (mouse CXCR4) | IC50 (human CXCR4 [3]) [nM] | Chemotaxis Jurkat cells IC50 (M) n=1 (human CXCR4 [1]) [M] | Chemotaxis Jurkat cells IC50 (M) n=2 (human CXCR4 [1]) [M] | Chemotaxis Jurkat cells IC50 (M) n=3 (human CXCR4 [1]) [M] | cAMP inhibition assay IC50 (M) n=1 (human CXCR4 [1]) [M] | cAMP inhibition assay IC50 (M) n=2 (human CXCR4 [1]) [M] | EC50 (human CXCR4 [4]) [nM] | binding result (CXCR4 V196E) | binding result (CXCR4 D187V) | binding result (CXCR4 F189V)
1 | B1 | 1.12e-09 | 2.78e-09 | 3.5 nM and 1.4 nM | 0.22 | no binding | 3 | – | – | – | – | – | – | – | – | –
2 | B2 | 1.18e-09 | 1.7e-09 | – | 0.2 | – | 5.1 | – | – | – | – | – | – | – | – | –
3 | B3 | 7.74e-10 | 4.11e-09 | 2.1 nM and 2.3 nM | 0.29 | no binding | 7.9 | 2.1e-09 | 2.3e-09 | 4.1e-09 | 1.6e-07 | 9.6e-07 | 3.3 | – | – | –
4 | B4 | – | – | – | 0.73 | – | 4.1 | 3.3e-09 | 8.1e-10 | – | 4e-07 | 2.5e-06 | 4 | – | – | –
5 | B5 | – | – | – | – | – | – | – | – | – | – | – | – | binds | binds | binds
6 | B6 | 2.2e-09 | 2.08e-09 | 3.5 nM and 4.7 nM | – | – | 3.1 | – | – | – | – | – | 3.1 | – | – | –
7 | B7 | 1.93e-09 | 3.29e-09 | 3.5 nM and 1.2 nM | 0.52 | – | 4.7 | – | – | – | – | – | 2.4 | – | – | –
